Measurements: PMC11702627

Target: T1, WT 4Ig-B7-H3-meGFP (and WT 4Ig-B7-H3-mCherry as the second copy) (human), Q5ZPR3
T1 chain: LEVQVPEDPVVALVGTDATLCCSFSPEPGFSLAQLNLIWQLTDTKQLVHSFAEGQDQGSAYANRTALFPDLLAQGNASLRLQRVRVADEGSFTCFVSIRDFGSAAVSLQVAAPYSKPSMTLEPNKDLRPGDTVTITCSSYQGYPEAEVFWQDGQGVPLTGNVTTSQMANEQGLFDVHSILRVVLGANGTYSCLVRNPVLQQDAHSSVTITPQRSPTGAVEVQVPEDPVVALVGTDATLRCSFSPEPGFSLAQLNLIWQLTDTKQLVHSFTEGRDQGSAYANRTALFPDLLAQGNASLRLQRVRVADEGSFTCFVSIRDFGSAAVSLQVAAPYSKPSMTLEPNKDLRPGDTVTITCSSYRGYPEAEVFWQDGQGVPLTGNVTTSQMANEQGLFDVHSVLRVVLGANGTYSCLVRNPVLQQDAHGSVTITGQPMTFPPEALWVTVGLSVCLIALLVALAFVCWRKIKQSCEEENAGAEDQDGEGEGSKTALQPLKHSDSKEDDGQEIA
Assay: FRET or BRET
Conditions: remark: other sources report otherwise

abundance of dimeric complexes (1.3 ns lifetime population): 65% | dimeric abundance (with MBCD 0.1 ug, 10 minutes): 26% | dimeric abundance (without MBCD): 48% | dimeric lifetime abundance (with Vector-mCherry): 56%
B1: WT 4Ig-B7-H3-meGFP (and WT 4Ig-B7-H3-mCherry as the second copy), Q5ZPR3 29-534 (natural protein)
chain: T1 chain
